T1: D1 Her2-Fc
T1 construct: also called MR066; ErbB2-Fc Domain 1; not shown: huIgG1-Fc part
T1 chain: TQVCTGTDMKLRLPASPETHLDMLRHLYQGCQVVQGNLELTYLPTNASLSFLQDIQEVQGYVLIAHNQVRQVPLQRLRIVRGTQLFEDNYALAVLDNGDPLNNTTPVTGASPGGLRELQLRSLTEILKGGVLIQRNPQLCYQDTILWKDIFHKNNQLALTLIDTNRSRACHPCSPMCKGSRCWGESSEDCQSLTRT

T2: D1-D2 Her2-Fc
T2 construct: also called MR067; ErbB2-Fc Domains 1-2; not shown: huIgG1-Fc part
T2 chain: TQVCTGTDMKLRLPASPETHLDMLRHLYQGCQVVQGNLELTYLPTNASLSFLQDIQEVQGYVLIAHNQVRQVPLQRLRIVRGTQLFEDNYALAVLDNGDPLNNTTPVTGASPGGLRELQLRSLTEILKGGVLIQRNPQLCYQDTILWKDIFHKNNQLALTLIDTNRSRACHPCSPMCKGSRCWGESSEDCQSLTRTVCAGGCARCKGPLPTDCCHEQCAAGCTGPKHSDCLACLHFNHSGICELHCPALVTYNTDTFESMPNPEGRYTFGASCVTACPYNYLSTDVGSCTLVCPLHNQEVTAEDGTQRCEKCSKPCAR

B1: BIIB66A12 Fab (Fab, V domains shown)
VH: EVQLLESGGGLVQPGGSLRLSCAASGFTFSMYSMQWVRQAPGKGLEWVSVIGSSGGQTGYADSVKGRFTISRDNSKNTLYLQMNSLRAEDTAVYYCARVRDYYGSGSYYLDPWGQGTLVTVSS
VL: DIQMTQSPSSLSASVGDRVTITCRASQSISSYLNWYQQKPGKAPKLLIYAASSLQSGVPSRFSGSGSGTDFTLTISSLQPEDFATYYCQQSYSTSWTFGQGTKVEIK
notes: Soluble human Fab from a phagemid Fab library
B2: BIIB65C10 Fab (Fab, V domains shown)
VH: EVQLLESGGGLVQPGGSLRLSCAASGFTFSYYPMMWVRQAPGKGLEWVSSIWPSGGFTKYADSVKGRFTISRDNSKNTLYLQMNSLRAEDTATYYCARVSSSSWYGYLYWGQGTLVTVSS
VL: not shown
notes: as for B1
B3: BIIB65H09 Fab (Fab, V domains shown)
VH: EVQLLESGGGLVQPGGSLRLSCAASGFTFSWYSMWWVRQAPGKGLEWVSSIVSSGGQTRYADSVKGRFTISRDNSKNTLYLQMNSLRAEDTAVYYCARVKGYYYYIDVWGKGTTVTVSS
VL: DIQMTQSPGTLSLSPGERATLSCRASQSVDSSYLSWYQQKPGQAPRLLIYGASTRATGIPARFSGSGSGTDFTLTVSRLEPEDFAVYYCQQHGYSSRTFGQGTKVEIK
notes: as for B1
B4: BIIB65B03 Fab (Fab, V domains shown)
VH: EVQLLESGGGLVQPGGSLRLSCAASGFTFSWYRMNWVRQAPGKGLEWVSSIYSSGGPTNYADSVKGRFTISRDNSQNTLYLQMNSLRAEDTAVYYCTREKPDYYDSSGYLDYWGQGTLVTVSS
VL: DIQMTQSPGTLSLSPGERSTLSCRASQSVSSSYLAWYQQKPGQAPRLLIYGASSRATGIPDRFSGSGSGTDFTLTISRLEPEDFGVYYCHQYGRPPVFGPGTKVDIK
notes: as for B1
B5: BIIB66C01 Fab (Fab, V domains shown)
VH: EVQLLESGGGLVQPGGSLRLSCAASGFTFSWYSMSWVRQAPGKGLEWVSSISSSGGPTHYADSVKGRFTISRDNSKNTLYLQMNSLRAEDTAVYYCARDSSYSGTSWGQGTLVTVSS
VL: QYELTQPPSVSGTPGQRVTISCSGSSSNIGSEYVYWFQQLPGTAPRLLIYRNDQRPSGVPDRFSGSKSGTSASLAISGLRSEDETDYYCTTWDDSLSGPVFGGGTKLTVL
notes: as for B1
B6: BIIB71F10 Fab (Fab, V domains shown)
VH: EVQLLESGGGLVQPGGSLRLSCAASGFTFSSYGMVWVRQAPGKGLEWVSSISSSGGLTWYADSVKGRFTISRDNSKNTLYLQMNSLRAEDTAVYYCASPPGIAVARDYWGQGTLVTVSS
VL: DIQMTQSPSSLSASVGDRVTITCRASQGISNYLAWYQQKPGKVPKLLIYAASTLQSGVPSRFSGSGSGTDFTLTISSLQPEDVATYYCQKYNSALLTFGGGTKVEIK
notes: Soluble human Fab; also called Fab 71F10

Target: T1, D1 Her2-Fc
Assay: ELISA, HER2 domain-Fc captured on anti-huFc, detection HRP-anti-fab
Description: (§1) Nunc Maxisorp ELISA plates were coated with 5 ug/ml rabbit pAbs anti-human Fc gamma in PBS overnight at 4 degrees. Plates were washed one time with PBST (PBS, 0.05% tween 20) and blocked with 1% BSA in PBS for one hour at room temperature. Plates were washed one time with PBST and incubated with 1 ug/ml HER2-Fc fusion protein for one hour. Plates were washed three times with PBST and dilutions of Fab (four 5-fold serial dilutions, starting at 1 ug/ml) in block were added and incubated for ninety minutes. Plates were washed three times with PBST and incubated with 1:2,000 HRP-labelled goat anti-human kappa (Southern Biotech cat#2060-05) and HRP-labelled goat anti-human lambda (Southern Biotech cat#2070-05) in block for one hour at room temperature. Plates were washed three times with PBST, developed with TMB solution for 5 minutes, and stopped with equal volume 1 NH₂SO₄. Absorbance values were read at 450 nm.

Binder	binding result
B1	no binding (tested: 1 ug/ml (from paragraph 380, not on the sheet))
B2	no binding (tested: 1 ug/ml (from paragraph 380, not on the sheet))
B3	no binding (tested: 1 ug/ml (from paragraph 380, not on the sheet))
B4	no binding (tested: 1 ug/ml (from paragraph 380, not on the sheet))
B5	no binding (tested: 1 ug/ml (from paragraph 380, not on the sheet))
B6	no binding (tested: 1 ug/ml (from paragraph 380, not on the sheet))

Target: T2, D1-D2 Her2-Fc
Assay: as above
Description: as §1

Binder	binding result
B1	no binding (tested: 1 ug/ml (from paragraph 380, not on the sheet))
B3	no binding (tested: 1 ug/ml (from paragraph 380, not on the sheet))
B4	no binding (tested: 1 ug/ml (from paragraph 380, not on the sheet))
B5	no binding (tested: 1 ug/ml (from paragraph 380, not on the sheet))

Source: patent US20100119511A1 (Biogen, published 2010)
